Molecular target: ATG3 (human, recombinant) (human, UniProt Q9NT62 1-314)
Assay: ITC

Sequence of ATG3 (human, recombinant) (Q9NT62 whole entry): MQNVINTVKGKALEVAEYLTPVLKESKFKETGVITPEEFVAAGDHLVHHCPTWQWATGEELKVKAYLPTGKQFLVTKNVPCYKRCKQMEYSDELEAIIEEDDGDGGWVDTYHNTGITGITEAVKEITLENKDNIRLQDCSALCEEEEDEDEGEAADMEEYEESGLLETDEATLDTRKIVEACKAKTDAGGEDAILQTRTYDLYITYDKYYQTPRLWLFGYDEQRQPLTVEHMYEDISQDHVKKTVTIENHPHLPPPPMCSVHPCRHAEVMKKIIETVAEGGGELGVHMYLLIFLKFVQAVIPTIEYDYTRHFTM

Kd: 117 nM
B1: unconjugated ATG12 (human, recombinant) (natural protein, UniProt O94817 1-140, looked up)
chain: MAEEPQSVLQLPTSIAAGGEGLTDVSPETTTPEPPSSAAVSPGTEEPAGDTKKKIDILLKAVGDTPIMKTKKWAVERTRTIQGLIDFIKKFLKLVASEQLFIYVNQSFAPSPDQEVGTLYECFGSDGKLVLHYCKSQAWG

— PMC3540207 (Nature structural & molecular biology, 2012)
